According to patent publication US20120034604A1:

Molecular target: polyclonal anti-QRFSR antibody 3RBF-SAB
Test: competitive ELISA: free Opiorphin against coated Y-(PE)12-QRFSR for antibody 3RBF-SAB

IC50: 0.03 µg/mL
Binder: QRFSR [Opiorphin QRFSR-peptide]
